By Kd is commonly meant the equilibrium constant for the complex coming apart. A higher Kd goes with lower affinity. In general, stoichiometry N refers to the number of molecules, sites or subunits per partner or assembly.

The source of these data is paper PMC5552345 (PLoS Pathogens, 2017).

For assay [1], the target named is T1, (NANP)6 peptide (Plasmodium falciparum CSP repeat, …).
T1 construct: printed as (NANP)6, written out here; a short segment of the antigenic NANP-repeat region of P. falciparum CSP; also called synthetic peptide antigen (NANP)6; source: synthetic peptide
T1 chain: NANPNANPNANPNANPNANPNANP
Description: ITC; 25°C; titration of 2A10 FAB or complete 2A10 with antigen; independent binding sites model; single titration each. The conditions noted are these: both partners purified.

The target in assay [2] is T2, (NANP)9 peptide (Plasmodium falciparum CSP repeat, …).
T2 construct: printed as (NANP)9, written out here; NANP repeat of P. falciparum CSP
T2 chain: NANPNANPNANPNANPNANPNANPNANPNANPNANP
Description: ELISA; recombinant 2A10, germline precursor, hybrids and their point mutants tested on the (NANP)9 peptide; details in S1 Methods.

B1: 2A10 antigen-binding fragment (FAB) (Fab, V domains shown)
VH: QIQLVQSGPELKKPGETVKISCKASGYTFTNYGINWVKQAPGKGLKWMGWINTITEEPTFAEEFTGRFAFSLETSASTAYLQINNLKNEDTATYFCARGSEFGRLVYWGQGASVTVSS
VL: DIQMTQTTSSLSASLGDRVTISCSASQGISNYLNWYQQKPDGTVKLLIFYTSTLYSGVPSRFSGSGSGTDYSLTISNLEPEDIATYYCQQYSRFPYVFGGGTKLEIK
notes: heavy chain part of the 2A10 FAB; as the heavy chain of m1; light chain of the 2A10 FAB; as the light chain of m1; also called 2A10 FAB; 2A10 FAB fragment; source: purified
In the case of B1, in assay [1], the Ka was found to be 2.37e+06 M⁻¹, the Kd amounted to 420 nM, the dH is -113 kJ/mol complex and the “stoichiometry N” value was 2.16 FAB per Ag.

B2: 2A10 gAb with light chain H68Y (antibody, V domains shown)
VH: QIQLVQSGPELKKPGETVKISCKASGYTFTNYGMNWVKQAPGKGLKWMGWINTNTGEPTYAEEFKGRFAFSLETSASTAYLQINNLKNEDTATYFCARGSEFGRLDYWGQGASVTVSS
VL: DIQMTQTTSSLSASLGDRVTISCSASQGISNYLNWYQQKPDGTVKLLIYYTSSLYSGVPSRFSGSGSGTDYSLTISNLEPEDIATYYCQQYSKLPYTFGGGTKLEIK
notes: as the heavy chain of m17 (gHC); as the light chain of m17 (gLC); source: HEK293T cells, expressed
Turning to B2, in assay [2], the binding result is “binds”.

B3: 2A10 gAb with light chain L114F (antibody, V domains shown)
VH: QIQLVQSGPELKKPGETVKISCKASGYTFTNYGMNWVKQAPGKGLKWMGWINTNTGEPTYAEEFKGRFAFSLETSASTAYLQINNLKNEDTATYFCARGSEFGRLDYWGQGASVTVSS
VL: DIQMTQTTSSLSASLGDRVTISCSASQGISNYLNWYQQKPDGTVKLLIYYTSSLHSGVPSRFSGSGSGTDYSLTISNLEPEDIATYYCQQYSKFPYTFGGGTKLEIK
notes: as for B2
As for B3, the binding result in assay [2] is listed as “binds”.

B4: 2A10 gAb with light chain T117V (antibody, V domains shown)
VH: QIQLVQSGPELKKPGETVKISCKASGYTFTNYGMNWVKQAPGKGLKWMGWINTNTGEPTYAEEFKGRFAFSLETSASTAYLQINNLKNEDTATYFCARGSEFGRLDYWGQGASVTVSS
VL: DIQMTQTTSSLSASLGDRVTISCSASQGISNYLNWYQQKPDGTVKLLIYYTSSLHSGVPSRFSGSGSGTDYSLTISNLEPEDIATYYCQQYSKLPYVFGGGTKLEIK
notes: as for B2
B4: the binding result in assay [2] was “binds”.

B5: hybrid antibody: 2A10 light chain (mLC) paired with germline heavy chain (gHC) (antibody, V domains shown)
VH: QIQLVQSGPELKKPGETVKISCKASGYTFTNYGMNWVKQAPGKGLKWMGWINTNTGEPTYAEEFKGRFAFSLETSASTAYLQINNLKNEDTATYFCARGSEFGRLDYWGQGASVTVSS
VL: DIQMTQTTSSLSASLGDRVTISCSASQGISNYLNWYQQKPDGTVKLLIFYTSTLYSGVPSRFSGSGSGTDYSLTISNLEPEDIATYYCQQYSRFPYVFGGGTKLEIK
notes: as the heavy chain of m17 (gHC); as the light chain of m7; also called mLC + gHC; source: HEK293T cells, expressed
As to B5, the binding result in assay [2] is given as “binds”.

B6: recombinant antibody corresponding to the 2A10 mAb (antibody, V domains shown)
VH: QIQLVQSGPELKKPGETVKISCKASGYTFTNYGINWVKQAPGKGLKWMGWINTITEEPTFAEEFTGRFAFSLETSASTAYLQINNLKNEDTATYFCARGSEFGRLVYWGQGASVTVSS
VL: DIQMTQTTSSLSASLGDRVTISCSASQGISNYLNWYQQKPDGTVKLLIFYTSTLYSGVPSRFSGSGSGTDYSLTISNLEPEDIATYYCQQYSRFPYVFGGGTKLEIK
notes: 2A10 heavy chain (mHC), as the heavy chain of m1; FAB part in the deposited structures; 2A10 light chain (mLC), as the light chain of m1; in the deposited structures; also called mHC + mLC; source: HEK293T cells, expressed
Consider B6, for which, in assay [2], the binding result is listed as “binds”.

B7: hybrid antibody mLC + gHC with heavy chain N59I (antibody, V domains shown)
VH: QIQLVQSGPELKKPGETVKISCKASGYTFTNYGMNWVKQAPGKGLKWMGWINTITGEPTYAEEFKGRFAFSLETSASTAYLQINNLKNEDTATYFCARGSEFGRLDYWGQGASVTVSS
VL: DIQMTQTTSSLSASLGDRVTISCSASQGISNYLNWYQQKPDGTVKLLIFYTSTLYSGVPSRFSGSGSGTDYSLTISNLEPEDIATYYCQQYSRFPYVFGGGTKLEIK
notes: as the heavy chain of m17 (gHC); as the light chain of m7; source: HEK293T cells, expressed
Take B7: the binding result in assay [2] is “binds”.

B8: 2A10 gAb with light chain L114F and T117V (antibody, V domains shown)
VH: QIQLVQSGPELKKPGETVKISCKASGYTFTNYGMNWVKQAPGKGLKWMGWINTNTGEPTYAEEFKGRFAFSLETSASTAYLQINNLKNEDTATYFCARGSEFGRLDYWGQGASVTVSS
VL: DIQMTQTTSSLSASLGDRVTISCSASQGISNYLNWYQQKPDGTVKLLIYYTSSLHSGVPSRFSGSGSGTDYSLTISNLEPEDIATYYCQQYSKFPYVFGGGTKLEIK
notes: as the heavy chain of m17 (gHC); as the light chain of m17 (gLC); also called L114F and T117V introduced simultaneously; source: HEK293T cells, expressed
On to B8, for which the binding result in assay [2] is “binds”.

B9: hybrid antibody mLC + gHC with heavy chain T67F (antibody, V domains shown)
VH: QIQLVQSGPELKKPGETVKISCKASGYTFTNYGMNWVKQAPGKGLKWMGWINTNTGEPTFAEEFKGRFAFSLETSASTAYLQINNLKNEDTATYFCARGSEFGRLDYWGQGASVTVSS
VL: DIQMTQTTSSLSASLGDRVTISCSASQGISNYLNWYQQKPDGTVKLLIFYTSTLYSGVPSRFSGSGSGTDYSLTISNLEPEDIATYYCQQYSRFPYVFGGGTKLEIK
notes: as for B7
As for B9, in assay [2], the binding result is on record as “binds”.

B10: hybrid antibody mLC + gHC with heavy chain M39I (antibody, V domains shown)
VH: QIQLVQSGPELKKPGETVKISCKASGYTFTNYGINWVKQAPGKGLKWMGWINTNTGEPTYAEEFKGRFAFSLETSASTAYLQINNLKNEDTATYFCARGSEFGRLDYWGQGASVTVSS
VL: DIQMTQTTSSLSASLGDRVTISCSASQGISNYLNWYQQKPDGTVKLLIFYTSTLYSGVPSRFSGSGSGTDYSLTISNLEPEDIATYYCQQYSRFPYVFGGGTKLEIK
notes: as for B7
Regarding B10, in assay [2], the binding result is given as “binds”.

B11: predicted germline precursor to the 2A10 antibody (2A10 gAb) (antibody, V domains shown)
VH: QIQLVQSGPELKKPGETVKISCKASGYTFTNYGMNWVKQAPGKGLKWMGWINTNTGEPTYAEEFKGRFAFSLETSASTAYLQINNLKNEDTATYFCARGSEFGRLDYWGQGASVTVSS
VL: DIQMTQTTSSLSASLGDRVTISCSASQGISNYLNWYQQKPDGTVKLLIYYTSSLHSGVPSRFSGSGSGTDYSLTISNLEPEDIATYYCQQYSKLPYTFGGGTKLEIK
notes: predicted germline heavy chain (gHC) of 2A10 by V-quest; the 2A10 heavy chain carries 6 mutations against it; predicted germline light chain (gLC) of 2A10 by V-quest; the 2A10 light chain carries 7 mutations against it; also called gHC + gLC; source: HEK293T cells, expressed
In the case of B11, the binding result in assay [2] was “binds”.
